Assay results published in US20260234121A1, “DERIVATIVES, IMMUNOGENS, AND ANTIBODIES AND USE OF THE SAME IN DETECTION OF ECSTASY-CLASS COMPOUNDS” (Siemens Healthcare Diagnostics Inc., priority 2023, published 2026).

Key:
[1] = Prototype EMIT ecstasy assay, cross-reactivity with amphetamine; type: biochemical; conditions: conjugate Compound 58; negative urine pool
[2] = Prototype EMIT ecstasy assay, cross-reactivity with methamphetamine; type: biochemical; conditions: conjugate Compound 58; negative urine pool
[3] = system: E1-OVA (55); assay: ELISA binding of hybridoma supernatant to E1-OVA (55) coated plates, without inhibitor; conditions: hybridoma supernatant mixed with PBS alone
Experimental: All ELISA steps were performed at rt. Wells of a Nunc Maxi-Sorp™ flat-bottom ELISA plates (ThermoFisher Scientific, Waltham, MA) were coated with 50 μL E1-OVA (55), E2-OVA (65), and E3-OVA (72) at a concentration of 1 μg/mL in PBS for 1 h. The plates were flicked dried and remaining binding sites were blocked with 200 μL per well of blocking solution (0.5% casein, 0.05% (v/v) Tween 20 in PBS) for one hour. Plates were washed six times with MilliQ water containing 0.05% (v/v) Tween 20 on Biotek 405 LS plate washer equipped with microplate Biostacker 3 (Biotek, Winooski, VT). 50 μL of serially diluted antibody samples (serial dilutions of serum, hybridoma supernatant, or monoclonal antibodies in PBS) were added to each well and incubated for one hour. Unbound antibodies were removed by washing as described above, and 50 μL of secondary goat anti-rabbit IgG HRP or goat anti-mouse IgG (Fc)-HRP conjugate (ThermoFisher Scientific, USA), diluted 1:3,000 in the blocking solution was added to each well for detection bound rabbit or mouse antibody, respectively. Plates were incubated for one hour, washed and 100 μL of TMB substrate (Moss, Pasadena, MD) was added for 15 min to determine bound peroxidase. Optical density (OD) of the samples at 650 nm was measured using an ELISA plate reader (Molecular Devices LLC., San Jose, CA). The titer of each serum sample was designated as the maximum dilution that yielded at least twice the absorbance of the same dilution of the nonimmune control serum.
The supernatants were screened in a competitive ELISA for the presence of anti-ecstasy compound monoclonal antibodies (mAbs) as follows. 25 μL of the hybridoma supernatant was mixed with equal volume of PBS alone or containing 20 μg/mL inhibitor (MDA or MDMA) were incubated for 1 h in the wells of E1-OVA (55) coated ELISA plates. The plates were washed and the presence of bound mAbs were detected using goat anti-mouse IgG (Fc)-HRP conjugate and TMB substrate as described above. The level of inhibition of mAb/E1-OVA (55) binding in the presence of the inhibitor was estimated using a Percent (%) Inhibition calculated by the below formula:
[formula] • where “OD650 nm w/o Inhibitor” is the binding response of the antibody sample diluted in PBS alone (with no inhibitor), and the “OD650 nm with Inhibitor” is the binding response of the same antibody sample in the presence of 10 μg/mL of inhibitor (i.e., MDA or MDMA). […]

Molecule	Concentrations (μg/mL) of Structurally Related Compounds Equivalent to 500 ng/mL MDMA Cutoffs, (+/−) Amph [1] [µg/mL]	Concentrations (μg/mL) of Structurally Related Compounds Equivalent to 500 ng/mL MDMA Cutoffs, (+/−) mAmph [2] [µg/mL]	E1-OVA (55) Binding, OD650 nm w/o inhib [3] [OD650 nm]
178K 3C8 mAb: mouse monoclonal antibody raised against E1-KLH (56); IgG1, κ; heavy chain SEQ ID NO 88, light chain SEQ ID NO 112 (antibody) heavy: MNFGLSLIFLVLILKGVQCEVQLVESGGDLVKPGESLKLACAASGFTFSRDVMSWVRQTPDKRLEWVATISSNGIYIYYTDSVKGRFTISRDNAKNTLYLQLSSLRSEDTAVYYCSRGNNLDSWGQGTTLTVSSAKTTPPSVYPLAPGSAAQTNSMVTLGCLVKGYFPEPVTVTWNSGSLSSGVHTFPAVLQSDLYTLSSSVTVPSSTWPSETVTCNVAHPASSTKVDKKIVPRDCGCKPCICTVPEVSSVFIFPPKPKDVLTITLTPKVTCVVVDISKDDPEVQFSWFVDDVEVHTAQTQPREEQFNSTFRSVSELPIMHQDWLNGKEFKCRVNSAAFPAPIEKTISKTKGRPKAPQVYTIPPPKEQMAKDKVSLTCMITDFFPEDITVEWQWNGQPAENYKNTQPIMDTDGSYFIYSKLNVQKSNWEAGNTFTCSVLHEGLHNHHTEKSLSHSPGK light: MRFSAQLLGLLVLWIPGSTADIVMTQAAFSNPVTLGTSASISCRSSKSLLHRNGITYLYWYLQKPGQSPQLLIYQMSNLASGVSDRFSSSGSGTDFTLRISRVEAEDVGVYFCGQDLELPYSFGGGTKLEIKRADAAPTVSIFPPSSEQLTSGGASVVCFLNNFYPKDINVKWKIDGSERQNGVLNSWTDQDSKDSTYSMSSTLTLTKDEYERHNSYTCEATHKTSTSPIVKSFNRNEC	30	50	2.389
178K 5B11 mAb: mouse monoclonal antibody raised against E1-KLH (56); IgG1, κ; heavy chain SEQ ID NO 90, light chain SEQ ID NO 114 (antibody) heavy: MNFGLSLIFLALILKGVQCEVQLVESGGDLVKPGGSLKLSCAASGFSFSAYVMSWVRQTPDKRLEWVATISRGGSYIYYPDSVKGRFTISRDDARDTLYLQMTSLKSEDTAVYYCSGGNNLDYWGQGTALTVSSAKTTPPSVYPLAPGSAAQTNSMVTLGCLVKGYFPEPVTVTWNSGSLSSGVHTFPAVLQSDLYTLSSSVTVPSSTWPSETVTCNVAHPASSTKVDKKIVPRDCGCKPCICTVPEVSSVFIFPPKPKDVLTITLTPKVTCVVVDISKDDPEVQFSWFVDDVEVHTAQTQPREEQFNSTFRSVSELPIMHQDWLNGKEFKCRVNSAAFPAPIEKTISKTKGRPKAPQVYTIPPPKEQMAKDKVSLTCMITDFFPEDITVEWQWNGQPAENYKNTQPIMDTDGSYFIYSKLNVQKSNWEAGNTFTCSVLHEGLHNHHTEKSLSHSPGK light: MRFSAQLLGLLVLWIPGSTADIVMTQAAFSNPVTLGTSASISCRSSKSLLQINGITYLYWYLQKPGQSPQLLIYQMSNLASGVPDRFSSSGSGTDFTLRISRVEAEDVGVYYCGQDLELPYTFGGGTKLEIKRADAAPTVSIFPPSSEQLTSGGASVVCFLNNFYPKDINVKWKIDGSERQNGVLNSWTDQDSKDSTYSMSSTLTLTKDEYERHNSYTCEATHKTSTSPIVKSFNRNEC	25 to 30	30 to 50	2.893
178F 4C12 mAb: mouse monoclonal antibody raised against E1-KLH (56); IgG1, κ; heavy chain SEQ ID NO 80, light chain SEQ ID NO 104 (antibody) heavy: MNFGLSLIFLALILKGVQCEVQLVESGGDLVKPGGSLKLSCAASGFTFSRFVMSWVRQTPDKRLEWVATISSGGIHTYYLDSVKGRVTIFRDNAKNTLYLQMSSLESEDTAMYYCAAGNALDYWGQGTSVTVSSAKTTAPSVYPLAPVCGGTTGSSVTLGCLVKGYFPEPVTLTWNSGSLSSGVHTFPALLQSGLYTLSSSVTVTSNTWPSQTITCNVAHPASSTKVDKKIEPRVPITQNPCPPLKECPPCAAPDLLGGPSVFIFPPKIKDVLMISLSPMVTCVVVDVSEDDPDVQISWFVNNVEVHTAQTQTHREDYNSTLRVVSALPIQHQDWMSGKEFKCKVNNRALPSPIEKTISKPRGPVRAPQVYVLPPPAEEMTKKEFSLTCMITGFLPAEIAVDWTSNGRTEQNYKNTATVLDSDGSYFMYSKLRVQKSTWERGSLFACSVVHEGLHNHLTTKTISRSLGK light: MRFSAQLLGLLVLWIPGSTADIVMTQAAFSNPVTLGTSGSVSCRSSKSLLHSNGITYLYWYLQKPGQSPQLLIYQMSNLASGVPDRFSSTGSGTDFTLRISRVEAEDVGVYYCGQDLELPYSFGSGTKLEIKRADAAPTVSIFPPSSEQLTSGGASVVCFLNNFYPKDINVKWKIDGSERQNGVLNSWTDQDSKDSTYSMSSTLTLTKDEYERHNSYTCEATHKTSTSPIVKSFNRNEC	40 to 45	40 to 50	2.836
178H 2A7 mAb: mouse monoclonal antibody raised against E1-KLH (56); IgG1, κ; heavy chain SEQ ID NO 82, light chain SEQ ID NO 106 (antibody) heavy: MNFGLSLISLALILKGVQCEVHLVESGGDLVKPGGSLKLSCAASGFTFSSYVMSWVRQTPDKRLEWIATISYGGGHYTYYPDSVKGRFTISRDNAKNTLYLQMNSLKSDDTAMYYCSSGNALNYWGQGTSVTVSSAKTTPPSVYPLAPGSAAQTNSMVTLGCLVKGYFPEPVTVTWNSGSLSSGVHTFPAVLQSDLYTLSSSVTVPSSTWPSQTVTCNVAHPASSTKVDKKIVPRDCGCKPCICTVPEVSSVFIFPPKPKDVLTITLTPKVTCVVVDISKDDPEVQFSWFVDDVEVHTAQTKPREEQINSTFRSVSELPIMHQDWLNGKEFKCRVNSAAFPAPIEKTISKTKGRPKAPQVYTIPPPKEQMAKDKVSLTCMITNFFPEDITVEWQWNGQPAENYKNTQPIMDTDGSYFVYSKLNVQKSNWEAGNTFTCSVLHEGLHNHHTEKSLSHSPGK light: MRFSAQLLGLLVLWIPGSTADIVMTQAAFSNPVTLGTSASISCRSSKSLLHYTGITYLYWYLQKPGQSPQLLIYQMSNLASGVPDRFSSSGSGTDFTLRISRVEAEDVGVYYCGQDLELPYSFGSGTKLEIKRADAAPTVSIFPPSSEQLTSGGASVVCFLNNFYPKDINVKWKIDGSERQNGVLNSWTDQDSKDSTYSMSSTLTLTKDEYERHNSYTCEATHKTSTSPIVKSFNRNEC	40 to 45	30 to 40	2.900
178F 4H5 mAb: mouse monoclonal antibody raised against E1-KLH (56); IgG2a, κ; heavy chain SEQ ID NO 81, light chain SEQ ID NO 105 (antibody) heavy: MNFGLSLIFLALILKGVQCEVQLVESGGDLVQPGGSLILSCVASGFTFRNYVMSWIRQTPDKRLEWVATINSGGSYTYYPDTVKGRFTISRDNAKSTLYLQMSSLKSEDTAMYYCASGNFLDYWGQGTSVTVSSAKTTPPSVYPLAPGSAAQTNSMVTLGCLVKGYFPEPVTVTWNSGSLSSGVHTFPAVLQSDLYTLSSSVTVPSSTWPSQTVTCNVAHPASSTKVDKKIVPRDCGCKPCICTVPEVSSVFIFPPKPKDVLTITLTPKVTCVVVDISKDDPEVQFSWFVDDVEVHTAQTKPREEQINSTFRSVSELPIMHQDWLNGKEFKCRVNSAAFPAPIEKTISKTKGRPKAPQVYTIPPPKEQMAKDKVSLTCMITNFFPEDITVEWQWNGQPAENYKNTQPIMDTDGSYFVYSKLNVQKSNWEAGNTFTCSVLHEGLHNHHTEKSLSHSPGK light: MRFSAQLLGLLVLWIPGSTADIVMTQAAFSNPVTLGTSASISCRSSKSLLNSYGITYLYWYLQKPGQSPQLLIYQMSNLASGVPDRFSSSGSGTDFTLRISRVEAEDVGVYYCGQDLELPYTFGSGTQLEIKRADAAPTVSIFPPSSEQLTSGGASVVCFLNNFYPKDINVKWKIDGSERQNGVLNSWTDQDSKDSTYSMSSTLTLTKDEYERHNSYTCEATHKTSTSPIVKSFNRNEC	30	30 to 40	2.948
